Data: the supplement of paper PMC9170038

Test system: K4 kissing-loop RNA reporter
Experiment: apparent KD of K4 kissing-loop reporter; higher = weaker reporter binding
Settings: Eterna round: R107
Experimental: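 RNA-MaP round R107: designed RNA switches with theophylline, tryptophan, arginine or FMN aptamers are transcribed on-chip within common flanks. They are titrated with a labelled K4 kissing-loop RNA reporter in RNA-MaP buffer (100 mM Tris pH 7.5, 80 mM KCl, 4 mM MgCl2), without ligand or with the indicated ligand. Median apparent KD per design.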

[1] = input ligand: theophylline 20 uM
[2] = input ligand: tryptophan 2.4 mM
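Note: bound reporter read as fluorescence of individual clusters on recovered sequencing chips by microscopy, with normalized cluster intensities fitted with a binding model.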

| Sequence | apparent KD of K4 kissing-loop reporter (input ligand: FMN 200 uM) | apparent KD of K4 kissing-loop reporter (input ligand: arginine 13.2 mM) | apparent KD of K4 kissing-loop reporter (input ligand: none) | apparent KD of K4 kissing-loop reporter [1] | apparent KD of K4 kissing-loop reporter [2] |
| --- | --- | --- | --- | --- | --- |
| AAACAUUGGUCUGAUACCAGCUUGAUCGGAAAACGAUCUGCUGGAGUGAUGUUCCAAUAAAGCCCUUGGCAGCAGACCGAUGAAA [MAT - Same State Theophlline B - Mod of Eli - D13] | 0.823 µM | 0.444 µM | 0.818 µM | 0.684 µM | 0.722 µM |
| AAACAUUGGUCUGAUACCAGCUUGAUCGGAAACGAUCUGCUGGAGUGAUGUUCCAAGUAAAGCCCUUGGCAGCAGACCGAUGAAA [MAT - Same State Theophlline B - Mod of Eli - D16] | 0.121 µM | 0.0696 µM | 0.149 µM | 0.192 µM | 0.115 µM |
| AAACAUUGGUGCGAUACCAGCUGAUCGGAAACGAUCUUGCUGGAGUGAUGUUCCAAGUAAAGCCCUUGGCAGCGCACCGAUGAAA [MAT - Same State Theophlline B - Mod of Eli - D21] | 0.135 µM | 0.0317 µM | 0.0915 µM | 0.072 µM | 0.0757 µM |
| AAAGCUCUAUAGAGCAAGAGGUCAACUGAUACCAGAGGCUAUAGCCUCCCUUGGCAGCGGAACGAGUGAUGUUCGAGACCUCAAA [AK6.1 SS Theophylline A] | 1.41 µM | 1.12 µM | 1.61 µM | 0.939 µM | 1.13 µM |
| AAAGCUUGGAUGGACGUUAGCGACGGAGAAGGAGCGCACGGAAGUGCAGGUAGGUCGCUCCGAGUGAUGUUCGUGAGUGAUUGCU [Ditienti] | 0.229 µM | 0.329 µM | 0.385 µM | 0.252 µM | 0.301 µM |
| AAAGGCAAAGCCCGAGUGAUGUUCGACGAUACCAGCCUCGAUAGAGGCCCUUGGCAGCGUAAAUGAUCACAAAGCCAAGGAAUAA [#OpenEnded 2 #StaticStem] | 0.31 µM | 0.244 µM | 0.268 µM | 0.248 µM | 0.261 µM |
| AAAGGUUGAAGUGAUACCAGACUAGCAGUGAUGUUGCGCCAAAGUGAGUGAUGUUCACCAGUCCCUUGGCAGCACAUGCCUAAAG [Same State Theophylline B GF 13] | 0.985 µM | 0.89 µM | 1.21 µM | 1.31 µM | 0.811 µM |
| AAAGUUGAAAGUGAUACCAGACGAGUGAAGGGAAGAAAUUAAUUUGGAGUGAUGUUCCGCGUCCCUUGGCAGCACUUUGUAAUUU [Exclusion Theophylline B GF 23] | 0.123 µM | 0.15 µM | 0.142 µM | 0.174 µM | 0.107 µM |
| AAAGUUGAUGAGUUGGGUAUGUGUUCCGAAGGAGCGAGAUUUAUCUCAGGUAGGUCGCGGAACUUGAGUGAUGUUCAUGUAUAAA [KL-XArg-A9 #analogue] | 0.356 µM | 0.408 µM | 0.491 µM | 0.637 µM | 0.305 µM |
| AAAUAAAGCAGUCACCCAGUGAUGUUGGAAGGAGCGUGCGAAAGCACAGGUAGGUCGCCAAAAUAAAAGUGGCUGCGGCAAAGCC [#SwitchBubble 24 #K4Early] | 0.627 µM | 0.283 µM | 0.492 µM | 0.338 µM | 0.222 µM |
| AAAUAGAUCAGUCAACCAGUGAUGUUGGAAGGAGCGUGCGAAAGCACAGGUAGGUCGCCAGAAUAAAAUUGGCUGAUCAAAAUAA | 0.328 µM | 0.338 µM | 0.333 µM | 0.408 µM | 0.185 µM |
| AAAUAGGAGUAAAUAAACAAUUUCCUUAGAGAGGAUAUUGGUAAUACAAGAAGGCUCUGUUGGGAGUGAUGUUCCCAUAACGCCU [Exclusion FMN A GF13] | 0.0583 µM | 0.0666 µM | 0.0566 µM | 0.0659 µM | 0.0567 µM |
| AAAUAUAGUGAUGUUAUAUAUAUAUGUGAUACCAGAGAAAAGAAACUCCCUUGGCAGCACGAGAGAGAAUUUUUUUUUUAUAUAU [AstrosSSTheA#2] | 0.37 µM | 0.409 µM | 0.498 µM | 0.471 µM | 0.328 µM |
| AAAUCGUUCAGAAGGAGCGUGGAUUAUUCUUAUAUAUUUAUUACGAGUGAUGUUCGUAAUUCACAGGUAGGUCGCUGAUCGAUAA [JR_ExcArginiB_Sub004] | 0.106 µM | 0.126 µM | 0.112 µM | 0.13 µM | 0.108 µM |
| AAAUGAAGGGCUCGCAGUGAUGUUGCGAGACGAGGACCGGUACGGCCGCCACUCGGCCGCUACUUUGACUCGGGCUUUAAGCUAC [Usarusteer] | 0.148 µM | 0.139 µM | 0.145 µM | 0.14 µM | 0.138 µM |
| AAAUGUAUCUGAAGGAGCGUGAAAUAAUAUUAGACAUAAUAGCCCAGUGAUGUUGGGUUAUCACAGGUAGGUCGCAGAUGUAUAA [Same State Arginie B GF 26] | 0.112 µM | 0.108 µM | 0.105 µM | 0.125 µM | 0.106 µM |

| Sequence | apparent KD of K4 kissing-loop reporter (input ligand: FMN 200 uM) | apparent KD of K4 kissing-loop reporter (input ligand: arginine 13.2 mM) | apparent KD of K4 kissing-loop reporter (input ligand: none) | apparent KD of K4 kissing-loop reporter [1] | apparent KD of K4 kissing-loop reporter [2] |
| --- | --- | --- | --- | --- | --- |
| AAAUUUAAUAUAUUUAAAUAAAUAUGUGAUACCAGACAUUUAUAAGUCCCUUGGCAGCACAUUGCAGUGAUGUUGCUUAUAAUAA [JR_SSTheophyA_Sub016] | 0.0727 µM | 0.0809 µM | 0.0897 µM | 0.145 µM | 0.0765 µM |
| AAAUUUAAUAUAUUUAAUUAAUUAUGUGAUACCAGACAUUUAUAAGUCCCUUGGCAGCACAAUGCAGUGAUGUUGCAUAUAAUAA [JR_SSTheophyA_Sub012] | 0.0643 µM | 0.103 µM | 0.0821 µM | 0.0775 µM | 0.0675 µM |
| AAAUUUAUAUUAGAUACCAGUAUUUUGAAUGUUUAUUAUGACAAGAGUGAUGUUCUUGUAUGCCCUUGGCAGCUGGUAUGGGUUU [KL-XTheo-B23] | 0.116 µM | 0.111 µM | 0.111 µM | 0.113 µM | 0.115 µM |
| AAAUUUGCCACUGAUACCAGCCAGUGAUGUUGGCGGUAGUUCUAUGGUACCAUACAUUGUGGCCCUUGGCAGCAGGGCACAGAGC [Raxeisra] | 0.115 µM | 0.0998 µM | 0.0927 µM | 0.115 µM | 0.113 µM |
| AACACUCAACGGAGUGAUGUUCUGGAAAACCGAGGACCGGUACGGCCGCCACUCGGAAAUGAGUGAGUCCUACGAAAAGUAGGAC [Omei inspired 2] | 0.16 µM | 0.161 µM | 0.15 µM | 0.157 µM | 0.125 µM |
| AACCAGCUUACUGUAAGCUGGUUGCUGGAUACCAGCUCGGAAACGAGCCCUUGGCAGCCAGAACUUGCAGUGAUGUUGCAAGUAA [Design11] | 0.15 µM | 0.178 µM | 0.157 µM | 0.12 µM | 0.216 µM |
| AACCUGACGACGAGUGAUGUUCGAUGGGAAGGAGCGCGAAGAAAUGCAGGUAGGUCGCCCUAAGAGAGUGUAACGUCAGGAUUAU [1.)] | 0.364 µM | 0.303 µM | 0.286 µM | 0.348 µM | 0.191 µM |
| AACGCCACCGCGGAUACCAGAGCCAGUGAUGUUGGAUCUGGAAAUUCGUGGGUAAGCUGGCUCCCUUGGCAGCUGCGGUUCUUUU [Tiisaron] | 0.134 µM | 0.112 µM | 0.114 µM | 0.131 µM | 0.109 µM |
| AACGGCCAGUCGGCCGCCACUCCAAGCAGUGAUGUUGCUAAGUUUCUAAAAGAGUGAUGUUCUUAGAGGACCGGGACUGAUGUAA [Exclusion Tryptophan B Gf 6] | 0.13 µM | 0.155 µM | 0.154 µM | 0.161 µM | 0.104 µM |
| AACGUUUUGUGAAGGAGCGCGAAAAGCAGUGAUGUUGCUUACUUACAAUUUAGAUUUAACACGCAGGUAGGUCGCACAAUACGUA [JR_SSArginiB_Sub016] | 0.252 µM | 0.225 µM | 0.266 µM | 0.259 µM | 0.219 µM |
| AACGUUUUGUGAAGGAGCGCGAUAAGCAGUGAUGUUGCUUACUAUCAAUUUAUAUUUUACACGCAGGUAGGUCGCACAAUACGUA [JR_SSArginiB_Sub018] | 0.159 µM | 0.135 µM | 0.16 µM | 0.148 µM | 0.163 µM |
| AACUGGGUUCGUGAUACCAGCUCACACAUGAGUGAUGUUCAUGUAGUGGGUAAAAUGUGGAGCCCUUGGCAGCACUGUGACCACG [XTheo-B1] | 0.0915 µM | 0.0764 µM | 0.0812 µM | 0.0675 µM | 0.0813 µM |
| AACUGUCAAGGACAACAUUACUGAAGUGAUACCAGCAUCGAAAGAUGCCCUUGGCAGCACUAACUUGCAGUGAUGUUGCAAGUAA [BrourdMod 3 - Jieux - Exclusion - Theophylline A] | 0.207 µM | 0.165 µM | 0.184 µM | 0.202 µM | 0.19 µM |
| AACUGUCAAGGACAACAUUACUGGAGUGAUACCAGCAUCGAAAGAUGCCCUUGGCAGCACUAACUUGCAGUGAUGUUGCAAGUAA [BrourdMod 6 - Jieux - Exclusion - Theophylline A] | 0.208 µM | 0.174 µM | 0.196 µM | 0.192 µM | 0.191 µM |
| AACUUUUAAUGAAUUACAUUUUAUUUAUCUCGAGGACCGGUACGGCCGCCACUCGUACUAUAGUGAUGUUAUAGAUAAGUCCUAA [JR_ExcTryptoA_Sub019] | 0.149 µM | 0.212 µM | 0.179 µM | 0.233 µM | 0.0738 µM |
| AACUUUUAAUGAAUUACAUUUUAUUUUUCUCGAGGACCGGUACGGCCGCCACUCGUACUAUAGUGAUGUUAUAGAUAAGUCCUAA [JR_ExcTryptoA_Sub020] | 0.124 µM | 0.182 µM | 0.142 µM | 0.179 µM | 0.0687 µM |
